# Reference: PMC6685158
# Biological target: NKG2D receptor on primary human NK cells (human (endogenous in primary NK cells)) (UniProt P26718)
# Sequence of UniProt P26718 (P26718 whole entry): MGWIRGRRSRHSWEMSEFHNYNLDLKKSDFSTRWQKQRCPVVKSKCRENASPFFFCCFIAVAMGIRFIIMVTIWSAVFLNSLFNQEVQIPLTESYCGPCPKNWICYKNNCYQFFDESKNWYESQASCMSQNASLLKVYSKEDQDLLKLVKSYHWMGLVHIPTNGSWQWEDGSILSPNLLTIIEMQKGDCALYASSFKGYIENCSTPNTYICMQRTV
substance,measurement,value
Full-length human MICA*002 on C1R-MICA*002 cells (from UniProt Q29983 24-383) (ligand),"NK cell cytolytic activity (7-AAD uptake of CD56- target cells), fresh NK cells with target cells 4 h at 10 to 1 effector to target ratio; parental C1R control approximately 15%",40%
